Read-outs that look alike come from different tables or passages of the source.
Assays:
[1] = molecular target: recombinant small latent TGF-β; assay: cell-based or functional assay
[2] = molecular target: recombinant small latent TGF-β; assay: cell-based or functional assay; remark: listed apart in the source

Row | Binder | Fold Activation of Latent TGF-β over Baseline (soft agar NRK colony formation) [1] | Fold Activation of Latent TGF-β over Baseline (soft agar NRK colony formation) [2]
1 | KRFK [KRFK (SEQ ID NO:5)] | 2 fold over baseline | 2 fold over baseline
2 | QRFK [QRFK (SEQ ID NO:8)] | 2 fold over baseline | –
3 | KRFKQDGGWWSP [KRFKQDGGWWSP (SEQ ID NO:17)] | – | 2.1 fold over baseline
4 | KRFKQDGGWSHWSPWSS [KRFKQDGGWSHWSPWSS (SEQ ID NO:15)] | – | 2 fold over baseline
5 | HRFK [HRFK (SEQ ID NO:6)] | 2 fold over baseline | –

Results, then the binder that gave them:

Row | Fold Activation of Latent TGF-β over Baseline (soft agar NRK colony formation) [1] | Fold Activation of Latent TGF-β over Baseline (soft agar NRK colony formation) [2] | Binder
6 | 2.2 fold over baseline | – | KKFK [KKFK (SEQ ID NO:32)]
7 | – | 2.3 fold over baseline | KRFKQDGGWSHWSP [KRFKQDGGWSHWSP (SEQ ID NO:14)]
8 | – | 1.9 fold over baseline | KRFKQDGGWSHW [KRFKQDGGWSHW (SEQ ID NO:16)]
9 | – | 2.1 fold over baseline | KRFKQDGG [KRFKQDGG (SEQ ID NO:9)]

Source: patent US6384189 (UAB RESEARCH FOUNDATION, dated 2002)
